# Fewer inactive variants are shown than the library holds.
# Experiments:
# [1] = tested on: biotinyl-Val-oxazolone; assay: self-aminoacylation, catalytic enhancement (BVO) (fold over background); higher = more active; k-Seq, kA / k0A0; sequences stand for … in GGGAAUGGAUCCACAUCUACGAAUUC…UUCACUGCAGACUUGACGAAGCUG
# Method in brief: (§1)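 Working in 50 μL HEPES/NaCl/KCl/MgCl2/CaCl2 buffer with 5% acetonitrile at pH 6.9–7.0, mutagenized RNA pools (0.43 μM; 21-nt variable region) were reacted with 2–1250 μM of each biotinyl-aminoacyl-oxazolone for 90 minutes at room temperature. Streptavidin capture followed, with quantification by triplicate qPCR and Illumina sequencing. Catalytic enhancement is reported as median kA over the uncatalyzed rate, the low-activity peak of a bimodal Gaussian fit to the data.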
# [2] = tested on: biotinyl-Met-oxazolone; assay: self-aminoacylation, catalytic enhancement (BMO) (fold over background); higher = more active; k-Seq, kA / k0A0; sequences stand for … in GGGAAUGGAUCCACAUCUACGAAUUC…UUCACUGCAGACUUGACGAAGCUG
# Method in brief: as §1
# [3] = tested on: biotinyl-Trp-oxazolone; assay: self-aminoacylation, catalytic enhancement (BWO) (fold over background); higher = more active; k-Seq, kA / k0A0; sequences stand for … in GGGAAUGGAUCCACAUCUACGAAUUC…UUCACUGCAGACUUGACGAAGCUG
# Method in brief: as §1
# [4] = tested on: biotinyl-Leu-oxazolone; assay: self-aminoacylation, catalytic enhancement (BLO) (fold over background); higher = more active; k-Seq, kA / k0A0; sequences stand for … in GGGAAUGGAUCCACAUCUACGAAUUC…UUCACUGCAGACUUGACGAAGCUG
# Method in brief: as §1
# [5] = tested on: biotinyl-Ile-oxazolone; assay: self-aminoacylation, catalytic enhancement (BIO) (fold over background); higher = more active; k-Seq, kA / k0A0; sequences stand for … in GGGAAUGGAUCCACAUCUACGAAUUC…UUCACUGCAGACUUGACGAAGCUG
# Method in brief: as §1
# [6] = tested on: biotinyl-Phe-oxazolone; assay: self-aminoacylation, catalytic enhancement (BFO) (fold over background); higher = more active; k-Seq, kA / k0A0; sequences stand for … in GGGAAUGGAUCCACAUCUACGAAUUC…UUCACUGCAGACUUGACGAAGCUG
# Method in brief: as §1
Sequence,self-aminoacylation [1],self-aminoacylation [2],self-aminoacylation [3],self-aminoacylation [4],self-aminoacylation [5],self-aminoacylation [6]
CUACUUAAAACAAUCGCUCUG [Fam1A.1 aminoacylation ribozyme variant],0.727,0.706,0.462,0.481,0.623,0.52
CCACACGUCAAUCAAUCGGUC [Fam1B.1 aminoacylation ribozyme variant],1.1,1.09,0.926,0.966,1.05,1.24
CUACUUCGAACAUUCGGUCUG [Fam1A.1 aminoacylation ribozyme variant],1.32,1.05,0.84,1.18,1.29,0.576
CCACACGUCAAGCAAUCGUUC [Fam1B.1 aminoacylation ribozyme variant],1.03,1.17,1.01,0.842,0.799,0.752
CAACACUUCAAGCCAUCGGUC [Fam1B.1 aminoacylation ribozyme variant],1.48,1.35,1.24,1.74,1.35,1.04
AUUACCCUGAUCAUUGAGUGA [Fam2.1 aminoacylation ribozyme variant],5.87,12.9,15.6,12.2,5.87,68.4
AUUACCCUCGACAUCGAGUGA [Fam2.1 aminoacylation ribozyme variant],5.56,11.5,14.5,12.7,4.58,83
AUUAACAUGGUCAUCGAGUGA [Fam2.1 aminoacylation ribozyme variant],3.23,5.53,8.43,6.1,3.41,26.1
AUUACCCUGGUCAUCGACUGU [Fam2.1 aminoacylation ribozyme variant],0.804,0.726,0.723,0.82,0.846,0.377
AUUUCCCUGGUCAACGAGUGA [Fam2.1 aminoacylation ribozyme variant],3.91,6.93,8.23,6.99,3.9,42.4
CCACACUUCGAGCGAUCGGUC [Fam1B.1 aminoacylation ribozyme variant],1.69,1.64,1.38,1.86,1.43,2.95
CUACUUCAAAGAAUGGGUCUG [Fam1A.1 aminoacylation ribozyme variant],0.665,0.708,0.459,0.74,0.79,0.335
CUACUUCAAAUAAUUGGUCUG [Fam1A.1 aminoacylation ribozyme variant],0.802,0.953,0.637,0.869,0.844,1.19
AUGUUUGCUAAUAGUCGAAAG [Fam3.1 aminoacylation ribozyme variant],1.11,1.08,2.94,1.07,1.28,8.7
CCACACUUCAAGCGAUCAGUC [Fam1B.1 aminoacylation ribozyme variant],0.776,0.699,0.843,0.665,0.884,1.37
AAGUUUGGUAAUAGUCACAAG [Fam3.1 aminoacylation ribozyme variant],1.07,1.01,0.739,0.902,1.04,1.51
AUUACCCUGGUCACCGAAUGA [Fam2.1 aminoacylation ribozyme variant],1.15,1.22,0.91,1.31,0.992,0.595
AAGUUUGCUAAUAAUCGAAAG [Fam3.1 aminoacylation ribozyme variant],0.764,0.793,0.78,0.95,1.02,0.807
AAGUUUGCUAAGAGUCGCAAG [Fam3.1 aminoacylation ribozyme variant],0.741,0.755,1.39,0.661,0.748,3.23
AAGUUUGCUAAUAGUAGCACG [Fam3.1 aminoacylation ribozyme variant],0.764,0.733,0.766,0.619,0.814,1.39
CUACUUCACACAGUCGGUCUG [Fam1A.1 aminoacylation ribozyme variant],0.731,0.619,0.682,0.682,0.65,0.389
AACUUUGCUAAUAGUGGCAAG [Fam3.1 aminoacylation ribozyme variant],0.919,0.764,1.11,1.44,1.07,1.37
AUCACCCUGGUCAUCGCGUGA [Fam2.1 aminoacylation ribozyme variant],17.1,33.9,33.8,36.4,12.1,215
AUUACCUUGGUCAUCAAGUGA [Fam2.1 aminoacylation ribozyme variant],1.92,3.32,4.02,3.54,1.97,3.79
CUUACCCUGGUCAUCUAGUGA [Fam2.1 aminoacylation ribozyme variant],3.89,7.9,10.4,8.12,3.75,29.7
AUUACACUGGUCAUCGAGUGA [Fam2.1 aminoacylation ribozyme variant],3.09,5.44,6.94,5.86,3.17,19.7

Sequence,self-aminoacylation [1],self-aminoacylation [2],self-aminoacylation [3],self-aminoacylation [4],self-aminoacylation [5],self-aminoacylation [6]
AUUCACUUAGGUCAUCUGGUG [Fam2.2 aminoacylation ribozyme variant],2.1,3.11,3.19,3.65,2.06,12.6
CCACACAACAAGCAAUCGGUC [Fam1B.1 aminoacylation ribozyme variant],0.899,0.781,0.693,0.863,0.894,1.15
CCACACUUCAAGCUAUUGGUC [Fam1B.1 aminoacylation ribozyme variant],0.759,0.643,0.661,0.595,0.797,0.896
AAGUUUGCUCAAAGUCGCAAG [Fam3.1 aminoacylation ribozyme variant],0.877,1.37,1.13,0.974,1.24,2.29
AUUUCCCUGGUCUUCGAGUGA [Fam2.1 aminoacylation ribozyme variant],4.6,6.94,9.21,7.28,4.33,47.9
CUACUUCGCACAAUCGGUCUG [Fam1A.1 aminoacylation ribozyme variant],0.961,0.94,0.591,0.999,0.867,0.439
AAGUUACCUAAUAGUCGCAAG [Fam3.1 aminoacylation ribozyme variant],1.4,1.44,1.74,1.39,1.25,2.52
AUUCACCUAGGUCAUCGAUUG [Fam2.2 aminoacylation ribozyme variant],0.586,0.539,0.489,0.502,0.512,0.422
AAUUUUGCUAAUAGUCGGAAG [Fam3.1 aminoacylation ribozyme variant],1.03,1.13,1.2,1.22,1.23,3.1
AUUACCCUUGUCAUUGAGUGA [Fam2.1 aminoacylation ribozyme variant],4.34,8.1,10.6,8.5,4.11,34
AAGUUUGCAAAUCGUCGCAAG [Fam3.1 aminoacylation ribozyme variant],0.93,0.985,1.21,1.18,1.09,0.933
CUCCUUCAAACGAUCGGUCUG [Fam1A.1 aminoacylation ribozyme variant],0.925,0.833,2.2,1.21,0.833,1.86
CCACACUUCAAGCAAUCCGUC [Fam1B.1 aminoacylation ribozyme variant],1.01,0.659,0.828,0.664,0.894,1.34
AAGUUUGCUAAUGGUAGCAAG [Fam3.1 aminoacylation ribozyme variant],0.994,0.976,0.649,0.692,1.02,1.12
CUACUUCAAACAACCAGUCUG [Fam1A.1 aminoacylation ribozyme variant],0.797,0.899,0.573,0.668,1.02,0.953
GCACUUCAAACAAUCGGUCUG [Fam1A.1 aminoacylation ribozyme variant],2.16,2.32,62.3,4.11,2.33,156
CUUUCCCUGGUCAUCGAGUGA [Fam2.1 aminoacylation ribozyme variant],5.04,8.78,10.6,8.95,4.62,7.03
CCCCACCUCAAGCAAUCGGUC [Fam1B.1 aminoacylation ribozyme variant],2.2,1.48,4.87,1.48,1.73,5.97
AUUACCCUCGUCAACGAGUGA [Fam2.1 aminoacylation ribozyme variant],2.06,3.05,2.82,3,1.89,5.53
AAGUUUCCUAAUAGUCGCAAC [Fam3.1 aminoacylation ribozyme variant],1.31,1.73,2.18,1.5,1.59,2.42
CUAUUUCGAACAAUCGGUCUG [Fam1A.1 aminoacylation ribozyme variant],0.793,0.799,0.67,0.697,0.814,0.664
AUUCACCUAAGUCAUCUGGUG [Fam2.2 aminoacylation ribozyme variant],1.86,2.52,2.98,3.72,2,16.6
AAGAUUGCUCAUAGUCGCAAG [Fam3.1 aminoacylation ribozyme variant],1.62,1.56,2.09,1.95,1.45,1.91
AUUAACCUGGUCAUGGAGUGA [Fam2.1 aminoacylation ribozyme variant],2.02,4.08,4.5,3.54,2.45,9.66
AUGACCCUGGUGAUCGAGUGA [Fam2.1 aminoacylation ribozyme variant],2.44,4.4,5,5.51,2.8,27.3

# From the supplement of paper PMC9233669
